Our source for the Kd values is article PMC11343135.

In general, Kd refers to the concentration at which binding is half-saturated. Read a high Kd as a looser complex.

For data set [1], the system named is SARS2-N/M (SUD-N/M) (SARS-CoV-2 (WA1)). The data set is described as follows: zone-interference gel electrophoresis.
For data set [2], the system named is SARS1-N/M (SUD-N/M) (SARS-CoV). The data set is described as follows: zone-interference gel electrophoresis.

In the case of BCL2 G4 quadruplex oligonucleotide, the dissociation constant (Kd) in data set [1] is 4100 nM; in data set [2], 1600 nM.
